In publication PMC5214741:

What was measured:
[1] = molecular target: E. coli F-ATPase subunit c (cysteine-free F-ATPase) (E. coli) (UniProt P68699); experiment: cryo-EM structure; purified cysteine-free E. coli F-ATPase in digitonin at 3.58 μM, no nucleotides added; three rotational states at 6.9, 7.8 and 8.5 Å; models built by docking crystal, NMR and homology models, side chains pruned to Cα
[2] = molecular target: E. coli F-ATPase subunit b (cysteine-free F-ATPase) (E. coli) (UniProt P0ABA0); experiment: as above

| stoichiometry N [1] | stoichiometry N [2] | Substance |
| --- | --- | --- |
| 10 |  | E. coli F-ATPase subunit c (cysteine-free F-ATPase) (from UniProt P68699 1-79) (natural protein) |
|  | 2 | E. coli F-ATPase subunit b (cysteine-free F-ATPase) (from UniProt P0ABA0 2-156) (natural protein) |
